# Results as given in the supplement of paper PMC11316812.
# ± gives the standard deviation of the averaged measurements.
# Key:
# [1] = tested on: MCF7; assay: percentage of EdU-negative (G0-arrested) nuclei per well, 72 h; higher = more G0 arrest; conditions: reference: sequence is the full UniProt precursor, the tested protein was the secreted form or ectodomain
# [2] = tested on: hTERT-HMEC; assay: as above; conditions: reference: sequence is the full UniProt precursor, the tested protein was the secreted form or ectodomain
# [3] = protein concentration 0.0225 µM
# [4] = protein concentration 0.01525 µM
# [5] = protein concentration 0.1525 µM
# [6] = protein concentration 0.020585 µM
# [7] = protein concentration 0.20585 µM
# [8] = protein concentration 0.03125 µM
# [9] = protein concentration 0.3125 µM
# [10] = protein concentration 0.01075 µM
# [11] = protein concentration 0.1075 µM
# 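Note: secreted proteins added to cultured cells, EdU pulse at the end, nuclei found by Hoechst imaging, EdU status from nuclear versus surrounding ring intensity ratio, PBS as neutral control.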
sequence,measurement,setting,value
MEIPVPVQPSWLRRASAPLPGLSAPGRLFDQRFGEGLLEAELAALCPTTLAPYYLRAPSVALPVAQVPTDPGHFSVLLDVKHFSPEEIAVKVVGEHVEVHARHEERPDEHGFVAREFHRRYRLPPGVDPAAVTSALSPEGVLSIQAAPASAQAPPPAAAK,percentage of EdU-negative,[1]; [3],27 ± 0.81%
same,percentage of EdU-negative,[1]; protein concentration 0.225 µM,25.6 ± 1.1%
same,percentage of EdU-negative,[2]; [3],4.93 ± 0.29%
same,percentage of EdU-negative,[2]; protein concentration 0.225 µM,5.53 ± 0.95%
MGPGRPAPAPWPRHLLRCVLLLGCLHLGRPGAPGDAALPEPNVFLIFSHGLQGCLEAQGGQVRVTPACNTSLPAQRWKWVSRNRLFNLGTMQCLGTGWPGTNTTASLGMYECDREALNLRWHCRTLGDQLSLLLGARTSNISKPGTLERGDQTRSGQWRIYGSEEDLCALPYHEVYTIQGNSHGKPCTIPFKYDNQWFHGCTSTGREDGHLWCATTQDYGKDERWGFCPIKSNDCETFWDKDQLTDSCYQFNFQSTLSWREAWASCEQQGADLLSITEIHEQTYINGLLTGYSSTLWIGLNDLDTSGGWQWSDNSPLKYLNWESDQPDNPSEENCGVIRTESSGGWQNRDCSIALPYVCKKKPNATAEPTPPDRWANVKVECEPSWQPFQGHCYRLQAEKRSWQESKKACLRGGGDLVSIHSMAELEFITKQIKQEVEELWIGLNDLKLQMNFEWSDGSLVSFTHWHPFEPNNFRDSLEDCVTIWGPEGRWNDSPCNQSLPSICKKAGQLSQGAAEEDHGCRKGWTWHSPSCYWLGEDQVTYSEARRLCTDHGSQLVTITNRFEQAFVSSLIYNWEGEYFWTALQDLNSTGSFFWLSGDEVMYTHWNRDQPGYSRGGCVALATGSAMGLWEVKNCTSFRARYICRQSLGTPVTPELPGPDPTPSLTGSCPQGWASDTKLRYCYKVFSSERLQDKKSWVQAQGACQELGAQLLSLASYEEEHFVANMLNKIFGESEPEIHEQHWFWIGLNRRDPRGGQSWRWSDGVGFSYHNFDRSRHDDDDIRGCAVLDLASLQWVAMQCDTQLDWICKIPRGTDVREPDDSPQGRREWLRFQEAEYKFFEHHSTWAQAQRICTWFQAELTSVHSQAELDFLSHNLQKFSRAQEQHWWIGLHTSESDGRFRWTDGSIINFISWAPGKPRPVGKDKKCVYMTASREDWGDQRCLTALPYICKRSNVTKETQPPDLPTTALGGCPSDWIQFLNKCFQVQGQEPQSRVKWSEAQFSCEQQEAQLVTITNPLEQAFITASLPNVTFDLWIGLHASQRDFQWVEQEPLMYANWAPGEPSGPSPAPSGNKPTSCAVVLHSPSAHFTGRWDDRSCTEETHGFICQKGTDPSLSPSPAALPPAPGTELSYLNGTFRLLQKPLRWHDALLLCESRNASLAYVPDPYTQAFLTQAARGLRTPLWIGLAGEEGSRRYSWVSEEPLNYVGWQDGEPQQPGGCTYVDVDGAWRTTSCDTKLQGAVCGVSSGPPPPRRISYHGSCPQGLADSAWIPFREHCYSFHMELLLGHKEARQRCQRAGGAVLSILDEMENVFVWEHLQSYEGQSRGAWLGMNFNPKGGTLVWQDNTAVNYSNWGPPGLGPSMLSHNSCYWIQSNSGLWRPGACTNITMGVVCKLPRAEQSSFSPSALPENPAALVVVLMAVLLLLALLTAALILYRRRQSIERGAFEGARYSRSSSSPTEATEKNILVSDMEMNEQQE [Q9UBG0],percentage of EdU-negative,[1]; [4],25.5 ± 1.7%
same,percentage of EdU-negative,[1]; [5],24.5 ± 0.7%
same,percentage of EdU-negative,[2]; [4],4.54 ± 0.35%
same,percentage of EdU-negative,[2]; [5],6.08 ± 1.1%
MAVRRDSVWKYCWGVLMVLCRTAISKSIVLEPIYWNSSNSKFLPGQGLVLYPQIGDKLDIICPKVDSKTVGQYEYYKVYMVDKDQADRCTIKKENTPLLNCAKPDQDIKFTIKFQEFSPNLWGLEFQKNKDYYIISTSNGSLEGLDNQEGGVCQTRAMKILMKVGQDASSAGSTRNKDPTRRPELEAGTNGRSSTTSPFVKPNPGSSTDGNSAGHSGNNILGSEVALFAGIASGCIIFIVIIITLVVLLLKYRRRHRKHSPQHTTTLSLSTLATPKRSGNNNGSEPSDIIIPLRTADSVFCPHYEKVSGDYGHPVYIVQEMPPQSPANIYYKV,percentage of EdU-negative,[1]; [6],24.9 ± 1.2%
same,percentage of EdU-negative,[1]; [7],25.5 ± 0.9%
same,percentage of EdU-negative,[2]; [6],4.57 ± 1%
same,percentage of EdU-negative,[2]; [7],6.25 ± 0.37%
MLLEPGRGCCALAILLAIVDIQSGGCINITSSASQEGTRLNLICTVWHKKEEAEGFVVFLCKDRSGDCSPETSLKQLRLKRDPGIDGVGEISSQLMFTISQVTPLHSGTYQCCARSQKSGIRLQGHFFSILFTETGNYTVTGLKQRQHLEFSHNEGTLSSGFLQEKVWVMLVTSLVALQAL,percentage of EdU-negative,[1]; [3],24.09 ± 0.069%
same,percentage of EdU-negative,[1]; protein concentration 0.225 µM,28.4 ± 2.2%
same,percentage of EdU-negative,[2]; [3],4.71 ± 0.094%
same,percentage of EdU-negative,[2]; protein concentration 0.225 µM,5.62 ± 0.37%
MLFSALLLEVIWILAADGGQHWTYEGPHGQDHWPASYPECGNNAQSPIDIQTDSVTFDPDLPALQPHGYDQPGTEPLDLHNNGHTVQLSLPSTLYLGGLPRKYVAAQLHLHWGQKGSPGGSEHQINSEATFAELHIVHYDSDSYDSLSEAAERPQGLAVLGILIEVGETKNIAYEHILSHLHEVRHKDQKTSVPPFNLRELLPKQLGQYFRYNGSLTTPPCYQSVLWTVFYRRSQISMEQLEKLQGTLFSTEEEPSKLLVQNYRALQPLNQRMVFASFIQAGSSYTTGEMLSLGVGILVGCLCLLLAVYFIARKIRKKRLENRKSVVFTSAQATTEA [Q9ULX7],percentage of EdU-negative,[1]; [8],24.3 ± 0.34%
same,percentage of EdU-negative,[1]; [9],24.31 ± 0.24%
same,percentage of EdU-negative,[2]; [8],4.94 ± 0.17%
same,percentage of EdU-negative,[2]; [9],4.94 ± 0.42%
MVPRIFAPAYVSVCLLLLCPREVIAPAGSEPWLCQPAPRCGDKIYNPLEQCCYNDAIVSLSETRQCGPPCTFWPCFELCCLDSFGLTNDFVVKLKVQGVNSQCHSSPISSKCESRRRFP [Q6UWQ7],percentage of EdU-negative,[1]; [10],24.7 ± 0.71%
same,percentage of EdU-negative,[1]; [11],25.6 ± 1.1%
same,percentage of EdU-negative,[2]; [10],5.54 ± 1.2%
same,percentage of EdU-negative,[2]; [11],6.18 ± 1.3%
